Test results published in publication PMC11258689, “A Snake Venom Peptide and Its Derivatives Prevent Aβ42 Aggregation and Eliminate Toxic Aβ42 Aggregates In Vitro” (ACS Chemical Neuroscience, 2024).
Non-standard residues stand in square brackets, D forms with d. No end group written: not given here.

Biological target: amyloid-β (1–42) (UniProt P05067)

B1: CDP-1D, D-enantiomeric form of CDP-1 (peptide)
peptide: Ac-[dK][dK][dC][dC][dK][dW][dR][dW][dR][dC][dD][dM][dK]
modifications: not fully specified (C-terminus); cysteine pairing not given here; also: methylated at the C-terminus
  ThT fluorescence of Aβ42 aggregation (10 μM Aβ42, 28 μM peptide, 24 h); inhibition of the self-aggregation of Aβ42: 100%
